One block for each binder: values may come before it.
Molecular target: T1, His6-tagged Lhs1p (wild type) (S. cerevisiae, UniProt P36016 21-881)
T1 sequence: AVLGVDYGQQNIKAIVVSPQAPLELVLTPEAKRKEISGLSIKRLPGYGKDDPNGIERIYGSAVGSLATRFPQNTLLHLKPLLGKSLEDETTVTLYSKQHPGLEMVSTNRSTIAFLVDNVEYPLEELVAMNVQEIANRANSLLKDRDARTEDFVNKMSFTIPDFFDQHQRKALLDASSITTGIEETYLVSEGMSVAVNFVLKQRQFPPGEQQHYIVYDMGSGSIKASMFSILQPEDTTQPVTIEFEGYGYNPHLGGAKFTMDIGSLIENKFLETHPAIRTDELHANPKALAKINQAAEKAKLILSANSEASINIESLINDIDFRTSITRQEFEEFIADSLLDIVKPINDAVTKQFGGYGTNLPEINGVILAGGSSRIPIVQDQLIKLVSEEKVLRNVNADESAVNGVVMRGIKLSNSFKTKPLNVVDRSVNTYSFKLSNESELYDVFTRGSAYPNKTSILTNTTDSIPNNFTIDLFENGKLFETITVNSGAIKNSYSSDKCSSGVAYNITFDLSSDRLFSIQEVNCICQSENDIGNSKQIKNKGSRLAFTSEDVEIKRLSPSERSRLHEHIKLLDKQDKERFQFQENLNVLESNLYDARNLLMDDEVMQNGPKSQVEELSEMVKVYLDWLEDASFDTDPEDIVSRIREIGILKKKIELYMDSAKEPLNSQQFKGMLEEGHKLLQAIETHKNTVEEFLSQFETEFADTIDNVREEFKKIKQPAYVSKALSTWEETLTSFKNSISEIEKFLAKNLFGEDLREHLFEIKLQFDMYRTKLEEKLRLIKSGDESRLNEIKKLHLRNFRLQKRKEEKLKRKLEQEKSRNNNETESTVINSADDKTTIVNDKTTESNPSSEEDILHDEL
Assay: pull-down

binding result: binds
B1: GST-tagged Kar2p (wild type) (natural protein)
chain: not shown

binding result: binds
B2: GST-tagged Kar2p(G246D) (natural protein)
chain: not shown

Source: PMC2797226 (The Journal of Biological Chemistry, 2009)
